Several values for one entry are separate records, joined by “and”; a condition that tells them apart may be missing. Equal entries are not always repeated. Where two headings read alike, the source gives them in different places.
Assays:
Experiment in all cases: mass photometry
[1] = target: Δloop-PopZ (PopZ lacking residues 129-134) (Caulobacter crescentus)
[2] = target: isolated OD-ΔL6 of PopZ (residues 102-171) (Caulobacter crescentus)
[3] = target: polar organizing protein Z (PopZ), wild type (Caulobacter crescentus)
[4] = target: ΔH2-PopZ (PopZ lacking residues 102-128) (Caulobacter crescentus)
[5] = target: ΔL6-PopZ (PopZ lacking residues 172-177) (Caulobacter crescentus)
[6] = target: ΔL6-PopZ (PopZ lacking residues 172-177) (Caulobacter crescentus); remark: listed apart in the source
[7] = target: PopZ P146A (Caulobacter crescentus)
[8] = target: PopZ P146A (Caulobacter crescentus); remark: listed apart in the source

“Δloop-PopZ (PopZ lacking residues 129-134) (natural protein)” was tested. Which stoichiometry N [1] did it give?
The stoichiometry N was 3.

Which stoichiometry N [2] does the source give for “isolated OD-ΔL6 of PopZ (residues 102-171) (domain or fragment)” here?
Its stoichiometry N is 6.

How did the stoichiometry N [3] turn out when “polar organizing protein Z (PopZ), wild type (natural protein)” was run?
Its stoichiometry N is 12 and 18.

“ΔH2-PopZ (PopZ lacking residues 102-128) (natural protein)” was tested. Which stoichiometry N [4] did it give?
The stoichiometry N was 3 and 6.

Which stoichiometry N [5] does the source give for “ΔL6-PopZ (PopZ lacking residues 172-177) (domain or fragment)” here?
Its stoichiometry N is 6.

What about the stoichiometry N [6] of the same substance?
The stoichiometry N was 6.

For PopZ P146A (natural protein), which stoichiometry N [7] is on record?
The stoichiometry N was 3.

And the stoichiometry N [8]?
Its stoichiometry N is 3.

— PMC11703246
